Assay [1] addresses Alexa 594-labeled N-WASP VCA (S430C) (UniProt O00401). The assay can be described thus: fluorescence polarisation.
For assay [2], the target named is G-actin (rabbit muscle actin monomers) (rabbit) (UniProt P68135). Nature of the assay: fluorescence polarisation. For orientation: In fluorescence polarisation assays a small probe gives low polarisation when free and higher when bound to something large.

Chain of Alexa 594-labeled N-WASP VCA (S430C) (O00401 whole entry S430C): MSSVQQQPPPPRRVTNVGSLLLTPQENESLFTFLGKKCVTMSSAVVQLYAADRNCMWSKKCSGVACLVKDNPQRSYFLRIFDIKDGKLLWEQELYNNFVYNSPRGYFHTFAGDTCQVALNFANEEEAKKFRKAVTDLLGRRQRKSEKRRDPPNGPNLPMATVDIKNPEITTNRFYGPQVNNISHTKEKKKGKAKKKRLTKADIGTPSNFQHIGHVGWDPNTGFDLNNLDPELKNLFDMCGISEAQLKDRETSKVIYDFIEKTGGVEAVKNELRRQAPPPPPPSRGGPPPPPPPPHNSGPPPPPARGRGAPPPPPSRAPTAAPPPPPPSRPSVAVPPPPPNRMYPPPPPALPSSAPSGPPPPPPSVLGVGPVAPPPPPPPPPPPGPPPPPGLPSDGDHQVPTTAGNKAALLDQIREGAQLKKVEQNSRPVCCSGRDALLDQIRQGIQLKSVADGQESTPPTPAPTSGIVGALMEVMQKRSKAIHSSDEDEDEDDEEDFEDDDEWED

One may read the Kd as the free concentration of one partner at which half of the binding sites on the other are occupied at equilibrium, for simple one-to-one binding. The low end stands for tighter binding, the high end for weaker binding. In assay [1], “G-actin (rabbit muscle actin monomers) (from UniProt P68135 1-377) (natural protein)” showed a Kd of 106 nM.
With “human WAVE1 GST-VCA K507Q (from UniProt Q92558 1-559) (domain or fragment)”, the fold reduction of affinity against wild-type WAVE1 GST-VCA in assay [2] was under 2 fold.

Source of the values: publication PMC4310740.
